Data on two molecules can be found in patent US6573045, “Methods and kits for discovery of RNA-binding compounds” (Ribotargets, Ltd.).

As usually defined, the Kd is the concentration at which binding is half-saturated. Read a low Kd as tighter binding.

For data set [1], the target named is T1, Rev peptide (Human immunodeficiency virus 1). The data set is described as follows: FRET quenching; TAMRA-Rev and DABCYL-TAR; 50 mM Tris pH 8, 50 mM KCl, room temp. The following applies: protein: synthetic; tags: chemically synthesised peptide; N-terminal TAMRA; label: 3'-DABCYL or 5'-Cy3; hairpin with bulge.
Data set [2] has as its target T1, Rev peptide. The data set is described as follows: FRET quenching; ±23; TAMRA-Rev and DABCYL-RRE; 50 mM Tris pH 8, 50 mM KCl, room temp. The following applies: protein: synthetic; tags: chemically synthesised peptide; N-terminal TAMRA; label: 3'-DABCYL or 5'-FAM; hairpin.

B1: TAR RNA 29-mer (ssRNA)
RNA: CCCAGAUCUGAGCCUGGGAGCUCUCUGGG
The molecule B1 gave a dissociation constant (Kd) in data set [1] of 11 µM.

B2: RRE RNA (ssRNA)
RNA: CGUGUGGGCGCAGCGUCAAUGACGCUGCGGUACACACG
B2: the Kd in data set [2] was 0.137 µM.
